In article PMC8043444:

Target: SARS-CoV-2 RBD WT for SPR binding assays (SARS-CoV-2) (UniProt P0DTC2)

S309 IgG1 (LS) (antibody)
neutralisation of authentic SARS-CoV-2-Nluc on Vero E6 cells (IF/luc), IC50: 78.9
neutralisation of authentic SARS-CoV-2-Nluc on Vero E6 cells (IF/luc), IC90: 300
